Laboratory results taken from article PMC8535469, “Insight into the Binding and Hydrolytic Preferences of hNudt16 Based on Nucleotide Diphosphate Substrates” (International Journal of Molecular Sciences, 2021).

Target: the molecule itself
Test: SAXS; 2.618 mg/mL hNudt16 in 20 mM HEPES pH 7.9, 300 mM NaCl, 10% glycerol, 0.5 mM TCEP, 20 mM MgCl2; room temperature; scattering compared with crystal structures of the dimer (CRYSOL) and ab initio model (DAMMIN)

B1: human Nudt16 protein (hNudt16), wild type (enzyme, UniProt Q96DE0 1-195, looked up)
chain: MAGARRLELGEALALGSGWRHACHALLYAPDPGMLFGRIPLRYAILMQMRFDGRLGFPGGFVDTQDRSLEDGLNRELREELGEAAAAFRVERTDYRSSHVGSGPRVVAHFYAKRLTLEELLAVEAGATRAKDHGLEVLGLVRVPLYTLRDGVGGLPTFLENSFIGSAREQLLEALQDLGLLQSGSISGLKIPAHH
notes: human Nudt16 (hNudt16), NUDIX hydrolase; also called hNudt16 WT
stoichiometry N: 2
